Results as given in US20230002480A1.

Tests used:
Assay in all cases: cell-based or functional assay
[1] = biological target: HIV-1 Env of pseudovirus A07412M1.vrc12 (HIV-1)
[2] = biological target: HIV-1 Env of pseudovirus Q769.d22 (HIV-1)
[3] = biological target: HIV-1 Env of pseudovirus BJOX010000.06.2 (HIV-1)
[4] = biological target: HIV-1 Env of pseudovirus Ce2060_G9 (HIV-1)
[5] = biological target: HIV-1 Env of pseudovirus MS208.A1 (HIV-1)
[6] = biological target: HIV-1 Env of pseudovirus Du422.1 (HIV-1)
[7] = biological target: HIV-1 Env of pseudovirus 6244_13_B5_4576 (HIV-1)
[8] = biological target: HIV-1 Env of pseudovirus WITO4160.33 (HIV-1)
[9] = biological target: HIV-1 Env of pseudovirus CNE30 (HIV-1)
[10] = biological target: HIV-1 Env of pseudovirus PVO.4 (HIV-1)
[11] = biological target: HIV-1 Env of pseudovirus ZM214M.PL15 (HIV-1)
[12] = biological target: HIV-1 Env of pseudovirus 9004SS_A3_4 (HIV-1)
[13] = biological target: HIV-1 Env of pseudovirus X1632_S2_B10 (HIV-1)
[14] = biological target: HIV-1 Env of pseudovirus TRJO4551.58 (HIV-1)
[15] = biological target: HIV-1 Env of pseudovirus C4118.c09 (HIV-1)
[16] = biological target: HIV-1 Env of pseudovirus T257-31 (HIV-1)
[17] = biological target: HIV-1 Env of pseudovirus ZM249M.PL1 (HIV-1)
[18] = biological target: HIV-1 Env of pseudovirus CNE20 (HIV-1)
[19] = biological target: HIV-1 Env of pseudovirus R1166.c01 (HIV-1)
[20] = biological target: HIV-1 Env of pseudovirus X2131_C1_B5 (HIV-1)
[21] = biological target: HIV-1 Env of pseudovirus 263-8 (HIV-1)
[22] = biological target: HIV-1 Env of pseudovirus P0402_c2_11 (HIV-1)
[23] = biological target: HIV-1 Env of pseudovirus CNE5 (HIV-1)
[24] = biological target: HIV-1 Env of pseudovirus ZM135M.PL10a (HIV-1)
[25] = biological target: HIV-1 Env of pseudovirus 6540.v4.c1 (HIV-1)
[26] = biological target: HIV-1 Env of pseudovirus QH0692.42 (HIV-1)
[27] = biological target: HIV-1 Env of pseudovirus 6811.v7.c18 (HIV-1)
[28] = biological target: HIV-1 Env of pseudovirus 6545.v4.c1 (HIV-1)
[29] = biological target: HIV-1 Env of pseudovirus BJOX015000.11.5 (HIV-1)
[30] = biological target: HIV-1 Env of pseudovirus ZM197M.PB7 (HIV-1)
[31] = biological target: HIV-1 Env of pseudovirus SC05_8C11_2344 (HIV-1)
[32] = biological target: HIV-1 Env of pseudovirus 928-28 (HIV-1)
[33] = biological target: HIV-1 Env of pseudovirus 1394C9G1(Rev-) (HIV-1)
[34] = biological target: HIV-1 Env of pseudovirus BF1266.431a (HIV-1)
[35] = biological target: HIV-1 Env of pseudovirus 89-F1_2_25 (HIV-1)
[36] = biological target: HIV-1 Env of pseudovirus T278-50 (HIV-1)
[37] = biological target: HIV-1 Env of pseudovirus 1006_11_C3_1601 (HIV-1)

PGDM1400 (antibody)
IC50, titer in TZM.bl cells [1]: 0.032 µg/mL | IC80, titer in TZM.bl cells [1]: 0.127 µg/mL | IC50 [2]: 0.002 µg/mL | IC80 [2]: 0.018 µg/mL | IC50, titer in TZM.bl cells [3]: 0.605 µg/mL | IC80, titer in TZM.bl cells [3]: 5.87 µg/mL | IC50 [4]: 0.001 µg/mL | IC80 [4]: 0.007 µg/mL | IC50 [5]: < 0.001 µg/mL | IC80 [5]: 0.139 µg/mL | IC50 [6]: 0.694 µg/mL | IC80 [6]: > 50 µg/mL | IC50 [7]: > 50 µg/mL | IC80 [7]: > 50 µg/mL | IC50 [8]: < 0.001 µg/mL | IC80 [8]: 0.008 µg/mL | IC50 [9]: > 50 µg/mL | IC80 [9]: > 50 µg/mL | IC50 [10]: 0.484 µg/mL | IC80 [10]: 6.49 µg/mL | IC50 [11]: > 50 µg/mL | IC80 [11]: > 50 µg/mL | IC50 [12]: < 0.001 µg/mL | IC80 [12]: 0.002 µg/mL | IC50, titer in TZM.bl cells [13]: 0.055 µg/mL | IC80, titer in TZM.bl cells [13]: 1.45 µg/mL | IC50 [14]: > 50 µg/mL | IC80 [14]: > 50 µg/mL | IC50, titer in TZM.bl cells [15]: 0.002 µg/mL | IC80, titer in TZM.bl cells [15]: 0.005 µg/mL | IC50 [16]: 0.002 µg/mL | IC80 [16]: 0.031 µg/mL | IC50 [17]: 0.016 µg/mL | IC80 [17]: 0.701 µg/mL | IC50 [18]: 0.004 µg/mL | IC80 [18]: 0.014 µg/mL | IC50, titer in TZM.bl cells [19]: 1.43 µg/mL | IC80, titer in TZM.bl cells [19]: 6.92 µg/mL | IC50, titer in TZM.bl cells [20]: 0.128 µg/mL | IC80, titer in TZM.bl cells [20]: 0.568 µg/mL | IC50 [21]: 0.02 µg/mL | IC80 [21]: 0.103 µg/mL | IC50, titer in TZM.bl cells [22]: 0.01 µg/mL | IC80, titer in TZM.bl cells [22]: 0.033 µg/mL | IC50, titer in TZM.bl cells [23]: < 0.001 µg/mL | IC80, titer in TZM.bl cells [23]: < 0.001 µg/mL | IC50 [24]: > 50 µg/mL | IC80 [24]: > 50 µg/mL | IC50, titer in TZM.bl cells [25]: 0.004 µg/mL | IC80, titer in TZM.bl cells [25]: 0.028 µg/mL | IC50 [26]: > 50 µg/mL | IC80 [26]: > 50 µg/mL | IC50, titer in TZM.bl cells [27]: > 50 µg/mL | IC80, titer in TZM.bl cells [27]: > 50 µg/mL | IC50, titer in TZM.bl cells [28]: 0.003 µg/mL | IC80, titer in TZM.bl cells [28]: 0.039 µg/mL | IC50, titer in TZM.bl cells [29]: 0.52 µg/mL | IC80, titer in TZM.bl cells [29]: 10.6 µg/mL | IC50 [30]: 0.063 µg/mL | IC80 [30]: 0.285 µg/mL | IC50 [31]: 1.26 µg/mL | IC80 [31]: 3.59 µg/mL | IC50 [32]: 0.22 µg/mL | IC80 [32]: 1.25 µg/mL | IC50 [33]: < 0.001 µg/mL | IC80 [33]: 0.004 µg/mL | IC50 [34]: 0.003 µg/mL | IC80 [34]: 0.011 µg/mL | IC50, titer in TZM.bl cells [35]: 0.001 µg/mL | IC80, titer in TZM.bl cells [35]: 0.005 µg/mL | IC50, titer in TZM.bl cells [36]: 0.574 µg/mL | IC80, titer in TZM.bl cells [36]: 4.94 µg/mL | IC50 [37]: 4.32 µg/mL | IC80 [37]: > 50 µg/mL

VRC01 (antibody)
IC50, titer in TZM.bl cells [2]: 0.08 µg/mL | IC80, titer in TZM.bl cells [2]: 0.29 µg/mL | IC50, titer in TZM.bl cells [4]: 0.29 µg/mL | IC80, titer in TZM.bl cells [4]: 1.48 µg/mL | IC50, titer in TZM.bl cells [5]: 0.1 µg/mL | IC80, titer in TZM.bl cells [5]: 0.46 µg/mL | IC50, titer in TZM.bl cells [6]: > 50 µg/mL | IC80, titer in TZM.bl cells [6]: > 50 µg/mL | IC50, titer in TZM.bl cells [7]: 0.21 µg/mL | IC80, titer in TZM.bl cells [7]: 0.53 µg/mL | IC50, titer in TZM.bl cells [8]: 0.15 µg/mL | IC80, titer in TZM.bl cells [8]: 0.41 µg/mL | IC50, titer in TZM.bl cells [10]: 0.22 µg/mL | IC80, titer in TZM.bl cells [10]: 1.2 µg/mL | IC50, titer in TZM.bl cells [11]: 0.44 µg/mL | IC80, titer in TZM.bl cells [11]: 2.6 µg/mL | IC50, titer in TZM.bl cells [13]: 0.12 µg/mL | IC80, titer in TZM.bl cells [13]: 0.74 µg/mL | IC50, titer in TZM.bl cells [14]: 0.08 µg/mL | IC80, titer in TZM.bl cells [14]: 0.21 µg/mL | IC50, titer in TZM.bl cells [16]: 2.8 µg/mL | IC80, titer in TZM.bl cells [16]: 8.66 µg/mL | IC50, titer in TZM.bl cells [17]: 0.05 µg/mL | IC80, titer in TZM.bl cells [17]: 0.23 µg/mL | IC50, titer in TZM.bl cells [19]: 1.7 µg/mL | IC80, titer in TZM.bl cells [19]: 4.58 µg/mL | IC50, titer in TZM.bl cells [20]: 0.51 µg/mL | IC80, titer in TZM.bl cells [20]: 1.54 µg/mL | IC50, titer in TZM.bl cells [21]: 0.2 µg/mL | IC80, titer in TZM.bl cells [21]: 0.55 µg/mL | IC50, titer in TZM.bl cells [22]: 0.21 µg/mL | IC80, titer in TZM.bl cells [22]: 0.59 µg/mL | IC50, titer in TZM.bl cells [23]: 0.37 µg/mL | IC80, titer in TZM.bl cells [23]: 1.1 µg/mL | IC50, titer in TZM.bl cells [24]: 0.35 µg/mL | IC80, titer in TZM.bl cells [24]: 2.7 µg/mL | IC50, titer in TZM.bl cells [25]: > 50 µg/mL | IC80, titer in TZM.bl cells [25]: > 50 µg/mL | IC50, titer in TZM.bl cells [26]: 1.5 µg/mL | IC80, titer in TZM.bl cells [26]: 4.8 µg/mL | IC50, titer in TZM.bl cells [27]: 0.09 µg/mL | IC80, titer in TZM.bl cells [27]: 0.26 µg/mL | IC50, titer in TZM.bl cells [28]: > 50 µg/mL | IC80, titer in TZM.bl cells [28]: > 50 µg/mL | IC50, titer in TZM.bl cells [30]: 0.36 µg/mL | IC80, titer in TZM.bl cells [30]: 1.6 µg/mL | IC50, titer in TZM.bl cells [31]: 0.64 µg/mL | IC80, titer in TZM.bl cells [31]: 1.91 µg/mL | IC50, titer in TZM.bl cells [32]: 0.41 µg/mL | IC80, titer in TZM.bl cells [32]: 1.7 µg/mL | IC50, titer in TZM.bl cells [34]: 0.07 µg/mL | IC80, titer in TZM.bl cells [34]: 0.23 µg/mL | IC50, titer in TZM.bl cells [36]: > 50 µg/mL | IC80, titer in TZM.bl cells [36]: > 50 µg/mL | IC50, titer in TZM.bl cells [37]: 0.15 µg/mL | IC80, titer in TZM.bl cells [37]: 0.39 µg/mL
